Measurements from US20090074762A1 (PDL BIOPHARMA, published 2009).
Where a chain is given by its changes, count along the chain named.

T1: TweakR on cells (TweakR-expressing cells, TweakR transfectant cell line, A375 melanoma cells, tumor tissue) (human, UniProt Q9NP84 28-129)
T1 sequence: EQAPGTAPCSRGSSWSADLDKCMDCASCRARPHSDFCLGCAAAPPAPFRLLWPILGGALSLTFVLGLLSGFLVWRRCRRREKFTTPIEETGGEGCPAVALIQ

T2: soluble form of the extracellular domain of human TweakR (human, UniProt Q9NP84 28-80)
T2 construct: also called soluble TweakR extracellular domain
T2 sequence: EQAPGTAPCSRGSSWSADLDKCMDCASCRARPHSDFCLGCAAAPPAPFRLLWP

T3: mouse TweakR (mouse, UniProt Q9CR75 28-80, limits assumed)
T3 construct: also called mouse TweakR protein
T3 sequence (looked up): T2 sequence with A7S, R11S, R29P, P47H

B1: murine anti-TweakR antibody ITEM-1 (antibody, V domains shown)
VH: EVKLEESGGGLVQPGGSMKLSCVASGFSFSNYWMNWVRQSPEKGLEWVAEIRLKSNNYATHYAESVKGRFTISRHDSKSSVYLQMNNLRAEDTGIYYCTRAYADYFDYWGQGTTLTVSS
VL: DIVLTQSPASLVVSLGQRATISCRASQSVSTSTYSYMHWYQQKPGQPPKILIKYASNLESGVPARFSGSGSGTDFTLNIHPVEEEDTATYYCQHSWEIPYTFGGGTKLEIKR
B2: murine anti-TweakR antibody ITEM-3 (antibody, V domains shown)
VH: EVKLEESGGGLVQPGGSMKLSCVVSGLTFSRYWMSWVRQSPEKGLEWVAEIRVKSDNYATTHYAESVKGKFTVSRDDSKSRLYLQMSSLRPEDTGIYYCIGYYADAMDYWGQGTSVTVSS
VL: B1 VL with T33S, I50L, N57K, E59D, Y100W, L108M
B3: humanized anti-TweakR antibody PDL192 (antibody, human IgG1, V domains shown)
VH: EVQLVESGGGLVQPGGSLRLSCAASGFTFSSYWMSWVRQAPGKGLEWVAEIRLKSDNYATHYAESVKGRFTISRDDSKNSLYLQMNSLRAEDTAVYYCTGYYADAMDYWGQGTLVTVSS
VL: DIQMTQSPSSLSASVGDRVTITCRASQSVSTSSYSYMHWYQQKPGKAPKLLIKYASNLESGVPSRFSGSGSGTDFTLTISSLQPEDFATYYCQHSWEIPYTFGGGTKVEIK
B4: murine anti-TweakR antibody 19.2.1 (antibody, mouse IgG2a, V domains shown)
VH: EVKLEESGGGLVQPGGSMKLSCVASGFTFSSYWMSWVRQSPEKGLEWVAEIRLKSDNYATHYAESVKGKFTISRDDSKSRLYLQMNSLRAEDTGIYYCTGYYADAMDYWGQGTSVTVSS
VL: DIVLTQSPASLAVSLGQRATISCRASQSVSTSSYSYMHWYQQKPGQPPKLLIKYASNLESGVPARFSGSGSGTDFTLNIHPVEEEDTATYYCQHSWEIPYTFGGGTKLEIK
B5: murine anti-TweakR antibody 18.3.3 (antibody, V domains shown)
VH: EVKLGESGGGLVQPGGSMKLSCVASGFPFTKYWMNWVRQSPEKGLEWVAEIRLKSDNYATHYAESAKGRFTISRDDSRSSVYLQMNNLRAEDTAIYYCSPTYADTMDYWGQGTSVTVSS
VL: B1 VL with V12A, R24K, H38Q, K43R, P47S, I50L, N57K, E59D, I98L, K107R
notes: Mouse monoclonal antibody
B6: murine anti-TweakR antibody 136.1 (antibody, V domains shown)
VH: EVKLEESGGGLVQPGGSMKLSCVASGFTFNNYWMSWVRQSPEKGLEWLAEIRLKSDNYATHYAESVKGKFTISRDDSKSRLYLQMNNLRAENTGIYYCTGGFADYFDYWGQGTTLTVSS
VL: B1 VL with V12T, T33S, H38Q, K43R, I50L, S56T, E59D, T87A
notes: Mouse monoclonal antibody
B7: humanized anti-TweakR antibody PDL400 (antibody, V domains shown)
VH: QVQLVQSGAEVKKPGASVKISCKVSGYTFTDFIIAWVKQAPGKGLEWIGEIYPGTGRTYYSEKFRGKATLTADKSTSTAYMELSSLRSEDTAVYYCARRTIYYDYDGDYWGQGTTVTVSS
VL: DIVMTQSPLSLPVTPGEPASISCRSSKSLLHSNGITYLYWYLQKPGQSPQLLIYQMSNLASGVPDRFSSSGSGTDFTLKISRVEAEDVGVYYCAHNLELPWTFGGGTKVEIK
notes: constant regions not expressly stated

Legend:
[1] = molecular target: T1, TweakR on cells (TweakR-expressing …); assay: cell-based or functional assay
[2] = molecular target: T2, soluble form of the extracellular …; assay: Biacore; antibody captured by immobilized anti-Fc, soluble TweakR extracellular domain injected
Experimental: The relative binding affinities of various mouse and humanized anti-TweakR antibodies were assessed in a Biacore assay using a soluble form of the extracellular domain of human TweakR. Briefly, goat anti-mouse Fc antibody or goat anti-human Fc was first immobilized to the biosensor surface followed by capture of antibody on the test surface. Subsequently, the soluble form of the extracellular domain of human TweakR was injected to measure binding to, and dissociation from, antibody.

[3] = molecular target: T3, mouse TweakR; assay: binding assay read as OD650, single bar per antibody and target; format and antibody concentration not given
[4] = molecular target: human TweakR (R56P) (human, UniProt Q9NP84 28-80, limits assumed); assay: as above

| Binder | agonist activity (IL-8 release assay) [1] [%] | Kd [2] [nM] | binding result [3] | binding result [4] |
| --- | --- | --- | --- | --- |
| B1 | ~25 | – | – | – |
| B2 | ~37 | – | – | – |
| B3 | ~25 | – | – | – |
| B4 | ~39 | 7.12 | – | – |
| B5 | ~14 | 0.23 | binds | binds |
| B6 | ~278 | 0.68 | – | – |
| B7 | ~8 | 0.58 | – | – |
